Source: the supplement of paper PMC10724198
± gives the standard deviation of the averaged measurements.

Columns and labels:
[1] = test system: Saccharomyces cerevisiae; experiment: protein stability index of tFT-peptide fusion (C-terminal peptide) (PSI (0-1 scale)); higher = more stable (slower turnover)
Description: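 MPS profiling in S. cerevisiae of the tFT-X12 degron library: putative degron peptides plus stable controls, 12 aa, fused to the C-terminus of a sfGFP-mCherry timer. Cells are FACS-sorted into 8 mCherry/sfGFP bins and deep-sequenced. PSI runs from 0 (unstable) to 1 (stable). Backgrounds are wild type, das1Δ and doa10Δ at 30 °C, and wild type, das1Δ, cdc34-1 and cdc53-1 at 37 °C; 2-3 technical replicates each.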

[2] = test system: Saccharomyces cerevisiae; experiment: as above; details: genetic background: wild type; temperature: 30 C
[3] = genetic background: cdc34-1, temperature: 37 C
[4] = genetic background: cdc53-1, temperature: 37 C
[5] = genetic background: das1 deletion, temperature: 30 C
[6] = genetic background: das1 deletion, temperature: 37 C
[7] = genetic background: doa10 deletion, temperature: 30 C
[8] = genetic background: wild type, temperature: 30 C
[9] = genetic background: wild type, temperature: 37 C
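Also: PSI is a weighted mean of sequencing reads over stability bins, variants kept only with over 10 reads, mCherry proximal and sfGFP distal, peptide attached via GGGS linker.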

Sequence | protein stability index [1, 3] | protein stability index [1, 4] | protein stability index [1, 5] | protein stability index [1, 6] | protein stability index [1, 7] | protein stability index [1, 8] | protein stability index [1, 9] | protein stability index [2]
ELDVRPMVFLVA | 0.4192 ± 0.0018 | 0.4521 ± 0.0023 | 0.346 ± 0.038 | 0.4943 ± 0.0028 | 0.295 ± 0.0069 | 0.337 ± 0.027 | 0.457 ± 0.011 | 0.422 ± 0.007
GPRRARLPNFLA | 0.445 ± 0.013 | 0.684 ± 0.031 | 0.657 ± 0.018 | 0.715 ± 0.018 | 0.0795 ± 0.025 | 0.0947 ± 0.025 | 0.123 ± 0.022 | 0.085 ± 0.012
NNGLLLDILIKA | 0.388 ± 0.034 | 0.399 ± 0.073 | 0.28 ± 0.044 | 0.463 ± 0.021 | 0.248 ± 0.0094 | 0.295 ± 0.028 | 0.4517 ± 0.0037 | 0.364 ± 0.059
NTNITHHSVKLR | 0.671 ± 0.017 | 0.7346 ± 0.0071 | 0.64 ± 0.026 | 0.712 ± 0.044 | 0.644 ± 0.024 | 0.662 ± 0.038 | 0.689 ± 0.036 | 0.727 ± 0.034
LSRRFSLALFWT | 0.57 ± 0.016 | 0.683 ± 0.051 | 0.654 ± 0.0085 | 0.707 ± 0.026 | 0.1762 ± 0.0015 | 0.197 ± 0.031 | 0.317 ± 0.0078 | 0.279 ± 0.012
YCSIQIQLVYGI | 0.341 ± 0.0037 | 0.4103 ± 0.0034 | 0.302 ± 0.025 | 0.441 ± 0.0063 | 0.301 ± 0.0082 | 0.312 ± 0.013 | 0.396 ± 0.011 | 0.424 ± 0.023
KSTLVRILVFHV | 0.559 ± 0.047 | 0.6474 ± 0.0042 | 0.458 ± 0.028 | 0.646 ± 0.044 | 0.2825 ± 0.0003 | 0.303 ± 0.0068 | 0.522 ± 0.0089 | 0.384 ± 0.071
NVWCWGASCFFC | 0.709 ± 0.048 | 0.797 ± 0.01 | 0.684 ± 0.0069 | 0.773 ± 0.0087 | 0.3367 ± 0.0033 | 0.36 ± 0.021 | 0.561 ± 0.025 | 0.447 ± 0.023
FPVWTALLTVRA | 0.0896 ± 0.022 | 0.128 ± 0.015 | 0.181 ± 0.035 | 0.259 ± 0.0096 | 0.14 ± 0.024 | 0.189 ± 0.014 | 0.22 ± 0.029 | 0.262 ± 0.016
FCCFFVHMSFFL | 0.26 ± 0.0087 | 0.424 ± 0.024 | 0.298 ± 0.026 | 0.45 ± 0.0054 | 0.2646 ± 0.00099 | 0.282 ± 0.012 | 0.427 ± 0.025 | 0.483 ± 0.12
LWFVIYLLCFFV | 0.394 ± 0.015 | 0.395 ± 0.0045 | 0.328 ± 0.022 | 0.482 ± 0.024 | 0.285 ± 0.0031 | 0.291 ± 0.04 | 0.452 ± 0.0078 | 0.348 ± 0.029
PFRSAYYLLFLL | 0.496 ± 0.048 | 0.6347 ± 0.0016 | 0.54 ± 0.013 | 0.6738 ± 0.00079 | 0.122 ± 0.015 | 0.118 ± 0.0092 | 0.161 ± 0.026 | 0.205 ± 0.035
PHFDLLLCLSLN | 0.625 ± 0.026 | 0.753 ± 0.057 | 0.676 ± 0.049 | 0.718 ± 0.018 | 0.248 ± 0.032 | 0.257 ± 0.033 | 0.521 ± 0.016 | 0.366 ± 0.0045
WQILVRLIDFYT | 0.453 ± 0.011 | 0.446 ± 0.023 | 0.345 ± 0.034 | 0.5107 ± 0.0039 | 0.311 ± 0.0072 | 0.338 ± 0.0092 | 0.4889 ± 0.00098 | 0.436 ± 0.0055
FLCLLSLFFLDF | 0.532 ± 0.044 | 0.572 ± 0.024 | 0.461 ± 0.03 | 0.626 ± 0.036 | 0.462 ± 0.034 | 0.437 ± 0.011 | 0.575 ± 0.015 | 0.478 ± 0.052
FFFLPLFLVLSL | 0.239 ± 0.01 | 0.158 ± 0.034 | 0.29 ± 0.025 | 0.378 ± 0.0094 | 0.486 ± 0.03 | 0.29 ± 0.03 | 0.329 ± 0.0071 | 0.363 ± 0.0047
CSRVVGLFFLVV | 0.5355 ± 0.0037 | 0.62 ± 0.019 | 0.427 ± 0.04 | 0.649 ± 0.042 | 0.371 ± 0.0081 | 0.413 ± 0.033 | 0.604 ± 0.016 | 0.432 ± 0.033
LWCLVWGGVWGV | 0.458 ± 0.014 | 0.5417 ± 0.005 | 0.353 ± 0.041 | 0.555 ± 0.0028 | 0.34 ± 0.0085 | 0.343 ± 0.039 | 0.508 ± 0.012 | 0.447 ± 0.009
TMSGVTRCVLVL | 0.521 ± 0.048 | 0.526 ± 0.04 | 0.385 ± 0.026 | 0.5463 ± 0.0053 | 0.339 ± 0.015 | 0.395 ± 0.02 | 0.5379 ± 0.0049 | 0.423 ± 0.015
LFTRWSILFKLF | 0.335 ± 0.075 | 0.357 ± 0.058 | 0.559 ± 0.032 | 0.694 ± 0.052 | 0.0889 ± 0.025 | 0.0908 ± 0.012 | 0.136 ± 0.015 | 0.132 ± 0.0026

Sequence | protein stability index [1, 3] | protein stability index [1, 4] | protein stability index [1, 5] | protein stability index [1, 6] | protein stability index [1, 7] | protein stability index [1, 8] | protein stability index [1, 9] | protein stability index [2]
VFWISRLYLASY | 0.474 ± 0.027 | 0.524 ± 0.023 | 0.442 ± 0.037 | 0.588 ± 0.012 | 0.42 ± 0.017 | 0.362 ± 0.023 | 0.52 ± 0.02 | 0.456 ± 0.02
VLRCIWLCFLSV | 0.487 ± 0.025 | 0.5129 ± 0.0034 | 0.439 ± 0.034 | 0.607 ± 0.032 | 0.448 ± 0.039 | 0.4 ± 0.013 | 0.561 ± 0.036 | 0.465 ± 0.043
SLVPSIFLFRIF | 0.566 ± 0.042 | 0.613 ± 0.0084 | 0.544 ± 0.028 | 0.682 ± 0.0094 | 0.323 ± 0.0096 | 0.307 ± 0.022 | 0.467 ± 0.014 | 0.4516 ± 0.0032
VAFLYCHFFYCI | 0.502 ± 0.063 | 0.531 ± 0.013 | 0.391 ± 0.029 | 0.53095 ± 0.00027 | 0.342 ± 0.0038 | 0.37 ± 0.014 | 0.47 ± 0.009 | 0.415 ± 0.013
KRARVIWKLVVV | 0.59 ± 0.033 | 0.528 ± 0.008 | 0.408 ± 0.024 | 0.583 ± 0.006 | 0.23 ± 0.01 | 0.287 ± 0.015 | 0.4876 ± 0.0039 | 0.445 ± 0.0046
GLGLIRTSRLLC | 0.609 ± 0.008 | 0.695 ± 0.026 | 0.627 ± 0.02 | 0.718 ± 0.0034 | 0.148 ± 0.027 | 0.186 ± 0.029 | 0.296 ± 0.027 | 0.278 ± 0.037
VSLLSLGYVFVY | 0.286 ± 0.05 | 0.27 ± 0.03 | 0.212 ± 0.038 | 0.3467 ± 0.00073 | 0.184 ± 0.0098 | 0.216 ± 0.033 | 0.319 ± 0.0037 | 0.307 ± 0.019
LPILFPAALRLY | 0.552 ± 0.0097 | 0.577 ± 0.028 | 0.521 ± 0.025 | 0.604 ± 0.01 | 0.267 ± 0.013 | 0.285 ± 0.026 | 0.455 ± 0.029 | 0.44 ± 0.02
LVPVWVGLRVLF | 0.422 ± 0.021 | 0.429 ± 0.0053 | 0.354 ± 0.042 | 0.537 ± 0.015 | 0.347 ± 0.018 | 0.328 ± 0.022 | 0.506 ± 0.014 | 0.421 ± 0.065
GLLAFVCISHTS | 0.497 ± 0.044 | 0.542 ± 0.0086 | 0.378 ± 0.033 | 0.575 ± 0.019 | 0.312 ± 0.0026 | 0.344 ± 0.026 | 0.5396 ± 0.0015 | 0.458 ± 0.039
FVGLFEYILLFV | 0.186 ± 0.009 | 0.167 ± 0.029 | 0.201 ± 0.028 | 0.358 ± 0.0079 | 0.263 ± 0.0056 | 0.201 ± 0.028 | 0.348 ± 0.0072 | 0.29 ± 0.036
SFVLLSSFLVFV | 0.249 ± 0.016 | 0.272 ± 0.042 | 0.262 ± 0.02 | 0.39553 ± 9.9e-06 | 0.275 ± 0.0036 | 0.241 ± 0.014 | 0.355 ± 0.0082 | 0.323 ± 0.013
TVRVWPRNLWFS | 0.519 ± 0.048 | 0.677 ± 0.017 | 0.639 ± 0.021 | 0.7273 ± 0.0018 | 0.111 ± 0.0029 | 0.111 ± 0.021 | 0.235 ± 0.031 | 0.176 ± 0.021
GLPRRFLLLSVV | 0.328 ± 0.008 | 0.4613 ± 0.0015 | 0.354 ± 0.033 | 0.508 ± 0.015 | 0.11 ± 0.016 | 0.137 ± 0.016 | 0.114 ± 0.02 | 0.218 ± 0.0055
GVCLGFICVGFC | 0.494 ± 0.028 | 0.55 ± 0.0067 | 0.359 ± 0.031 | 0.576 ± 0.032 | 0.343 ± 0.029 | 0.362 ± 0.026 | 0.522 ± 0.0075 | 0.444 ± 0.018
CSFHFSLFFLRV | 0.3793 ± 0.0022 | 0.426 ± 0.048 | 0.356 ± 0.027 | 0.4589 ± 0.0031 | 0.485 ± 0.042 | 0.332 ± 0.014 | 0.422 ± 0.0073 | 0.334 ± 0.037
FFVWLGWGMFYG | 0.547 ± 0.034 | 0.575 ± 0.015 | 0.425 ± 0.025 | 0.561 ± 0.0085 | 0.408 ± 0.0042 | 0.437 ± 0.013 | 0.6044 ± 0.0019 | 0.528 ± 0.054
ESRDRRVGIANW | 0.69 ± 0.036 | 0.743 ± 0.005 | 0.647 ± 0.0092 | 0.77 ± 0.0086 | 0.648 ± 0.014 | 0.647 ± 0.011 | 0.713 ± 0.014 | 0.7252 ± 0.0026
GHHLRVRVILTA | 0.4104 ± 0.00042 | 0.435 ± 0.0077 | 0.311 ± 0.026 | 0.47 ± 0.013 | 0.16006 ± 0.00015 | 0.189 ± 0.019 | 0.297 ± 0.013 | 0.275 ± 0.054
